Patent publication US20150368327A1 (YOKOHAMA CITY UNIVERSITY, published 2015)

Key:
[1] = molecular target: T1, ovalbumin (OVA) (UniProt P01012 2-386); test: antigen solid phase ELISA: coated ovalbumin (negative control), anti-mouse IgG2A-HRP, OD450
T1 sequence (looked up): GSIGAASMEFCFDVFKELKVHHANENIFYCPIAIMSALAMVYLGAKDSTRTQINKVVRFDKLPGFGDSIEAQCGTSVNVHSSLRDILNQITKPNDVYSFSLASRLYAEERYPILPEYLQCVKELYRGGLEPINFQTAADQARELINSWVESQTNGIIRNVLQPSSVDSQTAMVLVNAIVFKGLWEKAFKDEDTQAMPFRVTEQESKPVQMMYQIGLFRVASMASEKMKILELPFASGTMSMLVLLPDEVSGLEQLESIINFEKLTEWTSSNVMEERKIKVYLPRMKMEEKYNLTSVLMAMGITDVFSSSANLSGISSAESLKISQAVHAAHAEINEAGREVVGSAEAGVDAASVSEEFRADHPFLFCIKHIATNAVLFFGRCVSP
Protocol: (§1) The antigen specificity of the purified antibody was measured by ELISA with PBS buffer. 2.5 μg/mL of antigen was dispensed to a 96 well Maxi Sorp Plate (Nunc) and reacted overnight at 4° C. to coat the plate with an antigen (mouse Sema 3A protein). Ovalbumin, rabbit IgG and skim milk were immobilized in the plate as negative controls in similar manner in order to examine specificity of antibodies. The next day, the plate was washed three times with 200 μL/well of washing solution (PBS containing 0.05% Tween 20), to which was added 200 μL/well of blocking solution (PBS containing 0.5% skim milk) and the mixture was reacted for 30 minutes. The plate was washed three times with 200 μL/well of washing solution, to which was added 100 μL of culture supernatant containing antibody and the mixture was reacted for one hour. The plate was washed five times with 200 μL/well of washing solution, to which was added 100 μL/well of diluent in which anti-mouse IgG2A goat antibody labeled with horseradish peroxidase (HRP) (Bethyl Laboratories, Inc.) was diluted 2000 times with PBS buffer and the mixture was reacted for one hour. […] The absorbance was measured at 450 nm using μQuantBiomolecular Spectrometer (Bio Tek Instruments, Inc.) Results are shown in FIG. 2.

[2] = molecular target: T2, mouse Sema 3A protein (mouse, UniProt O08665 21-772, limits assumed); test: antigen solid phase ELISA: coated mouse Sema 3A (2.5 µg/mL), anti-mouse IgG2A-HRP, OD450
T2 construct: Produced from mouse Sema 3A protein expressing cells; also called Mouse Sema 3A antigen
T2 sequence (looked up): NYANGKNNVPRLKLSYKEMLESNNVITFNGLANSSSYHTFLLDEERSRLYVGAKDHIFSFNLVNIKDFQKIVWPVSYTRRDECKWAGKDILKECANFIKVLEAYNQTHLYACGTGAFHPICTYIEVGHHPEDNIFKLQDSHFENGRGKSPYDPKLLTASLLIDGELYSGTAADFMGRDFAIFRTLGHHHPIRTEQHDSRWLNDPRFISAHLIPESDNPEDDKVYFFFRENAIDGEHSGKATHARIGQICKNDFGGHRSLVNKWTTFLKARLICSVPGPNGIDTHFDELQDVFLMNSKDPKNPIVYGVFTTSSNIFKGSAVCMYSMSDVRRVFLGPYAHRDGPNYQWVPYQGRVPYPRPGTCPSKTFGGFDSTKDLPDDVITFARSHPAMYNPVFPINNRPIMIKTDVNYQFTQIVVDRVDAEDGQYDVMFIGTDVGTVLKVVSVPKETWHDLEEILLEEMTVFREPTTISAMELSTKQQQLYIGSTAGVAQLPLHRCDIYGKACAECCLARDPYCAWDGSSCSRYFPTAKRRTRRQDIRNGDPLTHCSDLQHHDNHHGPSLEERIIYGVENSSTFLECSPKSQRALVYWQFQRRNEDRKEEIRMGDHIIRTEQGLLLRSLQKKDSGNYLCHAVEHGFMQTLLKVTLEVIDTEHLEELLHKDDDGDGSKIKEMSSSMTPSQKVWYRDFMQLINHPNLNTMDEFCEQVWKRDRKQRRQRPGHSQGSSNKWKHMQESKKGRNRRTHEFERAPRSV
Protocol: as §1

[3] = molecular target: T2, mouse Sema 3A protein; test: competitive ELISA on plate-coated mouse Sema 3A; competitor biotin-labelled avian-mouse chimeric antibody (clone No. 4-2) at 60 ng/mL
Protocol: The obtained clone No. 4-2-derived avian-mouse chimeric antibody in Example 1, the obtained humanized antibodies in Example 2 (Humanized-1 and Humanized-2) and avian-human chimeric antibody were subjected to competitive ELISA to evaluate affinity to the antigen. CL18M (+) avian-mouse chimeric antibody, which served as a negative control, was also measured for affinity to the antigen. Particular measurement conditions were as follows.
Firstly, 2.5 μg/mL of antigen (mouse and human Sema 3A protein) was dispensed into a 384 Well MaxiSorp Plate (Nunc) and reacted overnight at 4° C. in order to coat the plate with the antigen. The next day, the plate was washed three times with 50 μL/well of washing solution (PBS containing 0.05% Tween 20), to which was added 25 μL/well of blocking solution (PBS containing 1% bovine serum albumin) and the mixture was reacted for 30 minutes. Each of humanized antibodies (Humanized-1 and Humanized-2), avian-human chimeric antibody and avian-mouse chimeric antibody was subjected to serial doubling dilution, to which was mixed anti-Sema 3A avian-mouse chimeric antibody labeled with biotin to the final concentration of 60 ng/mL, and the mixture was reacted with the antigen solid phase plate which was washed three times with 50 μL/well of washing solution for one hour. The plate was washed five times with 50 μL/well of washing solution, to which was added 20 μL/well of diluent in which streptavidin labeled with horseradish peroxidase (HRP) (Thermo Fisher Scientific K.K.) was diluted 10000 times with PBS buffer and the mixture was reacted for 30 minutes. The plate was washed five times with 50 μL/well of washing solution, to which was added 20 μL/well of TMB+(Dako) and the mixture was chromogenically reacted for 20 minutes. Subsequently, to the each well was added 20 μL, of 1M sulfuric acid to quench the reaction. The absorbance was measured at 450 nm using Infinite M1000 (Tecan Trading AG).

B1: Anti-Sema 3A avian-mouse chimeric antibody (clone No. 4-2-derived) (antibody, mouse IgG2a)
heavy: AVTLDESGGGLQTPGGALSLVCKASGFTFSSYPMGWVRQAPGKGLEWVAGIDDDGDSDTRYAPAVKGRATISRDNGQSTVRLQLNNLRAEDTGTYYCAKHTGIGANSAGSIDAWGHGTEVIVSSAKTTAPSVYPLAPVCGDTTGSSVTLGCLVKGYFPEPVTLTWNSGSLSSGVHTFPAVLQSDLYTLSSSVTVTSSTWPSQSITCNVAHPASSTKVDKKIEPRGPTIKPCPPCKCPAPNLLGGPSVFIFPPKIKDVLMISLSPIVTCVVVDVSEDDPDVQISWFVNNVEVHTAQTQTHREDYNSTLRVVSALPIQHQDWMSGKEFKCKVNNKDLPAPIERTISKPKGSVRAPQVYVLPPPEEEMTKKQVTLTCMVTDFMPEDIYVEWTNNGKTELNYKNTEPVLDSDGSYFMYSKLRVEKKNWVERNSYSCSVVHEGLHNHHTTKSFSRTPGK
light: ALTQPASVSANLGGTVKITCSGGGSYTGSYYYGWYQQKSPGSALVTMIYYNNKRPSDIPSRFSGSLSGSTNTLTITGVRADDEAVYFCGSADNSGDAFGAGTTLTVLGQPKSSPSVTLFPPSSEELETNKATLVCTITDFYPGVVTVDWKVDGTPVTQGMETTQPSKQSNNKYMASSYLTLTARAWERHSSYSCQVTHEGHTVEKSLSRADCS
notes: Avian variable regions of clone No. 4-2 with mouse IgG2a heavy and mouse lambda light constant regions; also called anti-Sema 3A avian-mouse chimeric antibody (IgG)
With B1 the binding result [1] was “no binding (tested: 100 ng/µL)”, the “EC50 (read off the curve)” value [2] was roughly 0.01 ng/µL and the IC50 [3] was 0.147 µg/mL.
